In the assay the target is 4-1BB-Fc (human, UniProt Q07011). Briefly: BLI, 24C, avidity. In general terms: Biolayer interferometry detects binding as a change in optical thickness at a sensor tip.

We go through 1 molecule from US20260347469 (published 2026).

Chain of 4-1BB-Fc (Q07011 24-186): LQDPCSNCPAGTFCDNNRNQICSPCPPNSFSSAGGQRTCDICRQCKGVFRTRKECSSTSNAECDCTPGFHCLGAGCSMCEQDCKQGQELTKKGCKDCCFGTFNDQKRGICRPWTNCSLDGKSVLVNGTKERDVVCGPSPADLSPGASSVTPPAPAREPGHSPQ

B1: D2 (4-1BBL trimer-Fc) (protein)
chain: KEITNALETWGALGQDINLDIPSFQMSDDIDDIKWEKTSDKKKIAQFRKEKETFKEKDTYKLFKNGTLKIKHLKTDDQDIYKVSIYDTKGKNVLEKIFDLKIQERVSKPKISWTCINTTLTCEVMNGTDPELNLYQDGKHLKLSQRVITHKWTTSLSAKFKCTAGNKVSKESSVEPVSCPEKGLDIYLIIGICGGGSLLMVFVALLVFYITKRKKQRSRRNDEELETRAHRVATEERGRKPHQIPASTPQNPATSQHPPPPPGHRSQAPSHRPPPPGHRVQHQPQKRPPAPSGTQVHQQKGPPLPRPRVQPKPPHGAAENSLSPSSN
The molecule B1 gave a Kd of 0.02 nM.
